# Experimental data: the supplement of paper PMC10567573
# B1: ZNF449 (parent)
# chain: EPHKCPECGKRFLRSSDLYRHQRL
# B2: HDAC6 (parent)
# chain: YVHHQALLDVKNIAHQNKFGEDMP
# Variants of: B1
# Test: protein stability index of a GFP-peptide fusion (GPS, HEK-293T) (PSI 1-6); higher = more stable
# Details: c terminus: a fixed tail appended
# 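Also: lentivirally expressed fusions sorted by FACS into six bins by GFP to DsRed ratio, PSI derived from sequencing read proportions per bin multiplied by bin number.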
row,Variant,protein stability index
1,EPHKCPECGKRFLRSSDLYMHQRL,3.83
2,EPHKCPECGKYFLRSSDLYRHQRL,4.39
3,EPHKEPECGKRFLRSSDLYRHQRL,3.56
4,EPHKCPECGKRFLRSKDLYRHQRL,3.81
5,EPTKCPECGKRFLRSSDLYRHQRL,3.9
6,EPHKCPECGKRFLRSSDLYRHYRL,3.44
7,EPHKCPECGYRFLRSSDLYRHQRL,2.5

# Variants of: B2
# Test: as above
# Details: c terminus: a fixed tail appended
row,Variant,protein stability index
1,YVHHQAFLDVKNIAHQNKFGEDMP,2.39
2,YVHHQASLDVKNIAHQNKFGEDMP,2.31
3,YVHHQAELDVKNIAHQNKFGEDMP,2.88
4,YVHHQAHLDVKNIAHQNKFGEDMP,2.25
5,YVHHQACLDVKNIAHQNKFGEDMP,1.97
6,YVHHQAWLDVKNIAHQNKFGEDMP,2.77
7,YVHHQAVLDVKNIAHQNKFGEDMP,2.21
8,YVHHQATLDVKNIAHQNKFGEDMP,2.18
9,YVHHQAQLDVKNIAHQNKFGEDMP,2.14
10,YVHHQADLDVKNIAHQNKFGEDMP,2.61
11,YVHHQANLDVKNIAHQNKFGEDMP,2.4
12,YVHHQARLDVKNIAHQNKFGEDMP,1.8
13,YVHHQAALDVKNIAHQNKFGEDMP,1.89
14,YVHHQAMLDVKNIAHQNKFGEDMP,2.32
15,YVHHQAKLDVKNIAHQNKFGEDMP,1.9
16,YVHHQAILDVKNIAHQNKFGEDMP,1.83
17,YVHHQAPLDVKNIAHQNKFGEDMP,2.73
18,YVHHQAGLDVKNIAHQNKFGEDMP,2.33
19,YVHHQAYLDVKNIAHQNKFGEDMP,2.53
20,YVHNQALLDVKNIAHQNKFGEDMP,1.65
21,YVHGQALLDVKNIAHQNKFGEDMP,1.99
22,YVHTQALLDVKNIAHQNKFGEDMP,1.47
23,YVHFQALLDVKNIAHQNKFGEDMP,2.98

row,Variant,protein stability index
1,YVHQQALLDVKNIAHQNKFGEDMP,2.61
2,YVHVQALLDVKNIAHQNKFGEDMP,1.95
3,YVHMQALLDVKNIAHQNKFGEDMP,1.83
4,YVHLQALLDVKNIAHQNKFGEDMP,2.2
5,YVHEQALLDVKNIAHQNKFGEDMP,2.82
6,YVHCQALLDVKNIAHQNKFGEDMP,1.7
7,YVHRQALLDVKNIAHQNKFGEDMP,1.74
8,YVHWQALLDVKNIAHQNKFGEDMP,3.43
9,YVHKQALLDVKNIAHQNKFGEDMP,1.78
10,YVHPQALLDVKNIAHQNKFGEDMP,3.02
11,YVHYQALLDVKNIAHQNKFGEDMP,1.78
12,YVHSQALLDVKNIAHQNKFGEDMP,1.64
13,YVHDQALLDVKNIAHQNKFGEDMP,2.64
14,YVHIQALLDVKNIAHQNKFGEDMP,1.97
15,YVHHQHLLDVKNIAHQNKFGEDMP,1.86
16,YVHHQFLLDVKNIAHQNKFGEDMP,1.4
17,YVHHQDLLDVKNIAHQNKFGEDMP,2.22
18,YVHHQTLLDVKNIAHQNKFGEDMP,1.97
19,YVHHQCLLDVKNIAHQNKFGEDMP,1.71
20,YVHHQKLLDVKNIAHQNKFGEDMP,1.64
21,YVHHQILLDVKNIAHQNKFGEDMP,3.2
22,YVHHQRLLDVKNIAHQNKFGEDMP,2.07
23,YVHHQGLLDVKNIAHQNKFGEDMP,2.65

row,Variant,protein stability index
1,YVHHQNLLDVKNIAHQNKFGEDMP,1.84
2,YVHHQVLLDVKNIAHQNKFGEDMP,1.86
3,YVHHQELLDVKNIAHQNKFGEDMP,2.17
4,YVHHQYLLDVKNIAHQNKFGEDMP,2.07
5,YVHHQMLLDVKNIAHQNKFGEDMP,1.96
6,YVHHQLLLDVKNIAHQNKFGEDMP,1.58
7,YVHHQWLLDVKNIAHQNKFGEDMP,2.7
8,YVHHQQLLDVKNIAHQNKFGEDMP,1.86
9,YVHHQSLLDVKNIAHQNKFGEDMP,2.41
10,YVHHQPLLDVKNIAHQNKFGEDMP,1.69
11,YVHHQALLHVKNIAHQNKFGEDMP,2.56
12,YVHHQALLTVKNIAHQNKFGEDMP,1.95
13,YVHHQALLMVKNIAHQNKFGEDMP,1.76
14,YVHHQALLRVKNIAHQNKFGEDMP,1.65
15,YVHHQALLCVKNIAHQNKFGEDMP,2.38
16,YVHHQALLIVKNIAHQNKFGEDMP,3.33
17,YVHHQALLAVKNIAHQNKFGEDMP,3.21
18,YVHHQALLWVKNIAHQNKFGEDMP,3.58
19,YVHHQALLSVKNIAHQNKFGEDMP,2.25
20,YVHHQALLLVKNIAHQNKFGEDMP,2.25
21,YVHHQALLQVKNIAHQNKFGEDMP,1.68
22,YVHHQALLPVKNIAHQNKFGEDMP,4.3
23,YVHHQALLGVKNIAHQNKFGEDMP,1.85

row,Variant,protein stability index
1,YVHHQALLVVKNIAHQNKFGEDMP,1.25
2,YVHHQALLYVKNIAHQNKFGEDMP,2.35
3,YVHHQALLEVKNIAHQNKFGEDMP,2.4
4,YVHHQALLNVKNIAHQNKFGEDMP,2.66
5,YVHHQALLFVKNIAHQNKFGEDMP,2.23
6,YVHHQALLKVKNIAHQNKFGEDMP,2.67
7,YVHHQALLDGKNIAHQNKFGEDMP,2.02
8,YVHHQALLDLKNIAHQNKFGEDMP,1.9
9,YVHHQALLDMKNIAHQNKFGEDMP,1.73
10,YVHHQALLDEKNIAHQNKFGEDMP,2.5
11,YVHHQALLDNKNIAHQNKFGEDMP,2.05
12,YVHHQALLDIKNIAHQNKFGEDMP,1.22
13,YVHHQALLDHKNIAHQNKFGEDMP,2.14
14,YVHHQALLDFKNIAHQNKFGEDMP,1.98
15,YVHHQALLDDKNIAHQNKFGEDMP,2.74
16,YVHHQALLDKKNIAHQNKFGEDMP,2.21
17,YVHHQALLDAKNIAHQNKFGEDMP,2.33
18,YVHHQALLDCKNIAHQNKFGEDMP,2
19,KVHHQALLDVKNIAHQNKFGEDMP,4.06
20,VVHHQALLDVKNIAHQNKFGEDMP,3.14
21,LVHHQALLDVKNIAHQNKFGEDMP,3.3
22,AVHHQALLDVKNIAHQNKFGEDMP,4.15
23,CVHHQALLDVKNIAHQNKFGEDMP,3.29

row,Variant,protein stability index
1,NVHHQALLDVKNIAHQNKFGEDMP,4.39
2,EVHHQALLDVKNIAHQNKFGEDMP,4.05
3,FVHHQALLDVKNIAHQNKFGEDMP,1.94
4,SVHHQALLDVKNIAHQNKFGEDMP,4.29
5,DVHHQALLDVKNIAHQNKFGEDMP,4.81
6,HVHHQALLDVKNIAHQNKFGEDMP,3.66
7,IVHHQALLDVKNIAHQNKFGEDMP,3.21
8,GVHHQALLDVKNIAHQNKFGEDMP,4.19
9,RVHHQALLDVKNIAHQNKFGEDMP,3.59
10,WVHHQALLDVKNIAHQNKFGEDMP,2.98
11,TVHHQALLDVKNIAHQNKFGEDMP,3.75
12,QVHHQALLDVKNIAHQNKFGEDMP,4.14
13,MVHHQALLDVKNIAHQNKFGEDMP,3.49
14,PVHHQALLDVKNIAHQNKFGEDMP,4.1
15,YKHHQALLDVKNIAHQNKFGEDMP,4.15
16,YNHHQALLDVKNIAHQNKFGEDMP,4.12
17,YCHHQALLDVKNIAHQNKFGEDMP,2.02
18,YTHHQALLDVKNIAHQNKFGEDMP,2.95
19,YEHHQALLDVKNIAHQNKFGEDMP,4.55
20,YLHHQALLDVKNIAHQNKFGEDMP,2.56
21,YHHHQALLDVKNIAHQNKFGEDMP,1.65
22,YDHHQALLDVKNIAHQNKFGEDMP,4.33
23,YFHHQALLDVKNIAHQNKFGEDMP,2.44

row,Variant,protein stability index
1,YMHHQALLDVKNIAHQNKFGEDMP,3.17
2,YRHHQALLDVKNIAHQNKFGEDMP,3.69
3,YGHHQALLDVKNIAHQNKFGEDMP,3.43
4,YAHHQALLDVKNIAHQNKFGEDMP,3.16
5,YPHHQALLDVKNIAHQNKFGEDMP,3
6,YSHHQALLDVKNIAHQNKFGEDMP,3.56
7,YQHHQALLDVKNIAHQNKFGEDMP,2.77
8,YYHHQALLDVKNIAHQNKFGEDMP,2.98
9,YWHHQALLDVKNIAHQNKFGEDMP,2.21
10,YIHHQALLDVKNIAHQNKFGEDMP,1.81
11,YVHHDALLDVKNIAHQNKFGEDMP,2.08
12,YVHHRALLDVKNIAHQNKFGEDMP,2
13,YVHHNALLDVKNIAHQNKFGEDMP,1.79
14,YVHHGALLDVKNIAHQNKFGEDMP,1.87
15,YVHHEALLDVKNIAHQNKFGEDMP,2.16
16,YVHHYALLDVKNIAHQNKFGEDMP,2.35
17,YVHHPALLDVKNIAHQNKFGEDMP,1.71
18,YVHHAALLDVKNIAHQNKFGEDMP,2.4
19,YVHHSALLDVKNIAHQNKFGEDMP,1.76
20,YVHHKALLDVKNIAHQNKFGEDMP,2.02
21,YVHHMALLDVKNIAHQNKFGEDMP,2.21
22,YVHHLALLDVKNIAHQNKFGEDMP,1.75
23,YVHHCALLDVKNIAHQNKFGEDMP,1.36

row,Variant,protein stability index
1,YVHHWALLDVKNIAHQNKFGEDMP,3.05
2,YVHHTALLDVKNIAHQNKFGEDMP,1.95
3,YVHHVALLDVKNIAHQNKFGEDMP,1.85
4,YVHHIALLDVKNIAHQNKFGEDMP,1.88
5,YVHHHALLDVKNIAHQNKFGEDMP,2.19
6,YVHHQALGDVKNIAHQNKFGEDMP,2.09
7,YVHHQALSDVKNIAHQNKFGEDMP,2.39
8,YVHHQALKDVKNIAHQNKFGEDMP,2.31
9,YVHHQALEDVKNIAHQNKFGEDMP,2.87
10,YVHHQALQDVKNIAHQNKFGEDMP,2.4
11,YVHHQALVDVKNIAHQNKFGEDMP,1.75
12,YVHHQALTDVKNIAHQNKFGEDMP,2.44
13,YVHHQALADVKNIAHQNKFGEDMP,1.93
14,YVHHQALIDVKNIAHQNKFGEDMP,1.65
15,YVHHQALHDVKNIAHQNKFGEDMP,2.72
16,YVHHQALDDVKNIAHQNKFGEDMP,2.71
17,YVHHQALWDVKNIAHQNKFGEDMP,1.81
18,YVHHQALRDVKNIAHQNKFGEDMP,2.06
19,YVHHQALMDVKNIAHQNKFGEDMP,1.95
20,YVHHQALCDVKNIAHQNKFGEDMP,2.43
21,YVHHQALPDVKNIAHQNKFGEDMP,2
22,YVHHQALYDVKNIAHQNKFGEDMP,2.32
23,YVHHQALFDVKNIAHQNKFGEDMP,3.34

row,Variant,protein stability index
1,YVHHQALNDVKNIAHQNKFGEDMP,2.71
2,YVKHQALLDVKNIAHQNKFGEDMP,2.18
3,YVFHQALLDVKNIAHQNKFGEDMP,1.48
4,YVLHQALLDVKNIAHQNKFGEDMP,2
5,YVMHQALLDVKNIAHQNKFGEDMP,1.8
6,YVWHQALLDVKNIAHQNKFGEDMP,2.41
7,YVVHQALLDVKNIAHQNKFGEDMP,2.46
8,YVEHQALLDVKNIAHQNKFGEDMP,2.81
9,YVCHQALLDVKNIAHQNKFGEDMP,1.89
10,YVQHQALLDVKNIAHQNKFGEDMP,1.78
11,YVRHQALLDVKNIAHQNKFGEDMP,1.39
12,YVNHQALLDVKNIAHQNKFGEDMP,2.62
13,YVYHQALLDVKNIAHQNKFGEDMP,1.69
14,YVGHQALLDVKNIAHQNKFGEDMP,2.03
15,YVPHQALLDVKNIAHQNKFGEDMP,1.65
16,YVIHQALLDVKNIAHQNKFGEDMP,1.66
17,YVDHQALLDVKNIAHQNKFGEDMP,2.14
18,YVSHQALLDVKNIAHQNKFGEDMP,2
19,YVAHQALLDVKNIAHQNKFGEDMP,1.55
20,YVTHQALLDVKNIAHQNKFGEDMP,1.82
